Laboratory results: the nanobody polyreactivity screen of Harvey et al. (2022)

assay: yeast display, Sf9 membrane polyspecificity reagent, FACS + sequencing; frameworks hold sequencing errors
In short: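 Nanobodies from a synthetic yeast display library (Saccharomyces cerevisiae BJ5465), induced 36–48 hours with galactose, were stained 1 hour at 4 °C with 10% biotinylated, detergent-solubilized Sf9 membrane reagent, enriched on streptavidin microbeads, then FACS-sorted. Anti-HA (expression) and streptavidin (reagent binding) fluorescence set low and high (top ~1%) gates. Polyreactivity labels come from the gate of origin. Genes were colony-PCR amplified, MiSeq 2 × 250 sequenced and filtered by CDR length.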

Sequence | polyreactivity (PSR sort gate)
QVQLVESGGGLFQAGGSLRLSCAASGRTLPAYAMGWYRQAPGKERELVAAISWGGGSTYYADSVKGRFTISRDNAKNTVYLQMNSLKPEDTSVYYCAVAGYWFAVAEYEYWGQGTQVTVSS | low polyreactivity
QVQLVESGGGLVQAGGSLRLSCAASGSTFGFNALGWYRQAPGKERELVAAITFSGGTTYYADSVKGRFTISRDNAKNTVYLQMNSLKPEDTAVYYCNADVKRDRVWGGDYWGQGTQVTVSS | low polyreactivity
QVQLVESGGGLVQAGGSLRLSCAASGFIFGGYAMGWYRQAPGKERELVAAITRGGSTDYADSVKGRFTISRDNAKNTVYLQMNSLKPEDTAVYYCAKKTPGWGKFDYWGQGTQVTVSS | low polyreactivity
QVQLVESGGGLVQAGGSLRLSSAGSGSTFIIYAMGWYRQAPGKERELVAAISWSGGSTYYADSVKGRFTISRDNAKNTVYLQMNSLKPEDTEVYYWAVVYRTRWSDYDYWGQGTQVTVSS | low polyreactivity
QVQLVESGGGLVQAGGSLRLSCAASGSTFGGNAMGWYRQAPGKERELVAAISSSGGSTYYADSVKGRFTISRDNAKITVYLQMNSLKPEDTAVYYCAALYHWTYDYWGQGTQVTVSS | low polyreactivity
QVQLVESGGGLVQAGGSLRLSCAASGSIFDLNAMGWYRQAPGKERELVAAISKSGGSTYYADSVKGRFTISRDNAKNTVYLQMNSLKPEDTAVYYCAKDRKYHLSGGYDYWGQGSQVTVSS | low polyreactivity
QVQLVESGGGLVQAGGSLRLSCAASGFTFDNYAMGWYRQEPGKERELVAAINISGGRTYYADSVKGRFTISRDNAKNTVYLQMNSLKPEDTAVYYCNIYYWYYALDYWGQGTQVTVSS | high polyreactivity
QVQLVESGGGLVQAGGSLRLSCAASGRILGRYAMGWYRQAPGKERELVAAISGSGTSTYYADSVKGRFTISRDNAKNTVYLQMNSLKPEDTAVYYCAAKWITRRGGDFDYWGQGTQVTVSS | high polyreactivity
QDQLVESGGGLVQAGGSLRLSCAASGRTLTRYTMGWYRQAPGKERELVATISRSGGNTHYADSVKGRFTISRDTAKNTVYLQMNSLIPEDTAVYYCNAVRYAIYGYDYWGQGTQVTVSS | high polyreactivity
QVQLVESGGGLVQAGGSLRLSCAASGFTFQRYAMGWYRQAPGKERELVATINWSGRTYYADSVNGRFTISRDNAKNTVYLQMNSLKPEDTAVYYCAAERIQYGWWVLFDYWGQGTQVTVSS | high polyreactivity
QVQLVESGGGLVQAGGSLRLSCAASGNTFLAYVMGWYRQAPGKEREFVAAISRRDGRTYYADSVKGRFTISRDNAKNTVYLQMNSLKPEDTAVYYCNAQRHFWHLYAPSSFDYWGQGTQVTVSS | low polyreactivity
QFQLVESGGGLVQAGGSLRLSCAASGSIFLSNAMGWYRQAPGKERELVADIDWTGGDTYYADSVKGRFRISRDNAKNTVYLQMNSLKREDTAVYYCAADYGYRNLRTEYGYWGQGTQVTVSS | low polyreactivity
QLQLGESGRGGVQAGGSLRVSCAPSGLPFIYYAMGWYRPAPGKVRELVATISQSGSSTYYADSVKGRFTSSRDHATNTVDLQMNSLKPADTAVDYCNVSSVRWARFDYWGQGTQVTVSS | high polyreactivity
QVQLVESGGGLVQAGGSLRLICAASGRIFNRNAMGWYRQAPGKERELVASISSGGRTNYADSVKGRFTISRDNAKNTVYLQMNSLKPEDTAVYYCAAKSPRILLDYWGQGTQVTVSS | low polyreactivity
QVQLVESGGGLVQAGGSLRLSCAASGFTFDPYAMGWYRQAPGKERELVAAISWIGTNTYYADSVKGRFTISRDNAKNTVYLLMNSLKPEDTAVYYCAADGPTIAVGSYDYWGQGTQVTVSS | low polyreactivity
QVQLVESGGGLVQAGGSLRLSCAASGRIFSNYAMGWYRQAPGKERELVAAISRGGGRTFYADSVKGRFTISRDNAKNTVYLQMNSLKPEDTAVYYCATRSYYVKGDYWGQGTQVNVSS | high polyreactivity
QVQLVESGGGLVQAGGSLRLSCAASGFIFRDYVMGWYRQAPGKERELVAAISYRGGSTNYADSVKGRFTISRDNAKNTVYLQMNSLKPEDTAVYSCAADQVHKREYDYWGQGTQVTVSS | low polyreactivity
QVQLVESGGGLVQAGGSLRLSCAASGSIFARYAMGWYRQAPGKERELVAAISSDGSTYYADSVKGRFTISRDNEKNTVYLQMNSLKPEDTAVYYCNTQFRYPQKYDYWGQGTQVTVSS | high polyreactivity
QVQLVESGGCLVQAGGSLRLSCAASGSTFGYNTMGWYRQAPGKERELDAAITGTGRTNYADSVKGRFTISRDNAKNNVYLQMYSLKPEDTAVYYCNARQAGTRYKYGYYGRYYWGHGTQVTVSS | high polyreactivity
QVQLVESGGGLVQAGGSLRLSCAASGSIFTRYAMGWYRQAPGKERELVAAISQSGGNTYYADSVKGRFTISRDNAKNTVYLQMNSLKPEDTAVYYCAARWPWTHTRGYWGQGTQVTVSS | high polyreactivity
QVQLVESGGGLVQAGGSLRLICADSGRIFNRYAMGWYRQAPGKEREFVAGITWNGGSTYYADSVKGRFTISRDNSKNTVNLQMNSLKPEDTAVYYCAATHYYYGTSRYDYWGQGTQVTVSS | high polyreactivity

Sequence | polyreactivity (PSR sort gate)
QVQLVESGGGLVQAGGSLRLSCAASGSTFLVYAMGWYRQAPGKERELVAVITYSTVRTYYADSVKGRFTISRDNAKNTVYLQMNSLKPEDTAVYYCNADKEFAVLGQGMDYWGQGTQVTVSS | low polyreactivity
QVQLVESGGGLVQAGGSLRLSCPASGRTFYKNAMGWYRQAPGKERELVAAITSGGSTNYADSVKGRFTISRDNAKNTVYLQMNSLKSEDTAVYYCAAQQFPYYRSRYSYINKYDYWGQGTQVTVSS | high polyreactivity
QVQLVESGGGLVQAGGSLRLTCAASGYIFNQYTMGWYRQAPGKERELDADISSGGSTKYADSVKVRFTISRDNAKNTVYLQMISRKAEDTAFYYCNAEYVYGYPTAYDWEYDYWGQGTQVTLSS | high polyreactivity
QVQLVESGGGLVQAGGSLRLSCAASGLIFRKNAMGWYRQAPGKEMELVAAISSSDSSTYADSVKGRCTISRDNAKNTVYLQMNSLKPEDTAVYYCAAASYNWLDWVTREYWGQGTQVTVSS | low polyreactivity
QVQLVESGGGLVQAGGSLRLSCAASGRIFRKYDMGWYRPAPGKERELVAAISGTGITYYADSVKGRFTISRDNAKNTVYLQMNSLKPEDTAVYYCARGSKPRAWSWAYPSATSIYDYWGQGTQVTVSS | low polyreactivity
QVQLVESGGGLVQAGGSLRLSCAASGNIFSYNAMAWYRQAPGKERELVAAITTSSGRTYYADSVKGRFTISRDIAKNTVYLQMNSLKPEVTAVYYCNAVQRYQMGYWGQGTQVTVSS | high polyreactivity
QVQLVESGGGLVQAGGSLRLSCAASGRIFQYYAMGWYRQAPGKERELVAAIDQSGDTTYYADSVKGRFTISRDNAKNTVYLQMNSLKPEDTAVYYCAAGYDWAYHWVPQWMYFWGQGTQVTVSS | low polyreactivity
QVQLVESGGGLVQAGGSLRLSCASSGRTFAWYAMGWYRQAPGKERELVAAISNVGSTYYADSVKGRFTISRDNAKNTVYLQMNSLKPEDTAVYYCNADAVSTDGREYWGQGTQVTVSS | low polyreactivity
QVQLVESGGGLVQAGGSLRLTCGASGRIFRGYAMGCSRQAPGKERELVASISGGDSTYADSVKGRYTISRDNAKNTVYLQINSLKPEDTSVYYWAASSWYPALREYWGQGTQVSVSS | low polyreactivity
QVQLVESGGGLVQAGGSLRLSCAASGIFGVNTMGWYRQAPGKERELVASITSGGSTNYADSVKGRFTISRDNAKNTVYLQMNSLKPEDTAVYYCAAGLYLQGPFDYWGQGTQVTVSS | low polyreactivity
QVQLVESGGGLVQAGGSLRLSCAASGSTFGRYVMGWYRQAPGKERELVAAISGSGGSTYYADSVKGRFTISRDNAKNTVYLQMNSLKPEDTAVYYCAARVAHYEYYWGQGTQVTVSS | high polyreactivity
QVQLVESGGGLDQAGGSLRLSCAASGRIFGYYVMGWYRQAPGKEREFVAAISRSGGSTYYADSVKGRFTISRDNAKTTVYLQMNSLKPEDTAVYYCAKRVSTYGFSGYDYWGQGTQVTVSS | high polyreactivity
QVQLQERGGGLVQVRGSLRLSCAASGTIIIYGFMGWNRQAPGKERELVASINLGGITNYADSVTGRFTISRDNAKNTVYRQMISLKPEDNAVYYCAAYVVTGQNYGYWCQGTQVTVSS | low polyreactivity
QVQLVESGGGLVQAGGSLRLRCAASGSIFVYNARGWYRPAPGKERELVPAISKSGGRTYYADSVKGRFTISRDNAKNTVYCQMHSLKPEDTAVYYCNALAGQRQGWEYDYWGQGTQVTVSS | high polyreactivity
QVQLVESGGGLVQAGGSLRLSCAASGRIFRRNVMGWYRQAPGKERELLAAIRGTGSTTYADSVKGRFTISRDNAKNTVYLQMNSLKPEDTAVYYCNAYKGQTGGGGRYGYWGQGTQVTVSS | high polyreactivity
QVQLVESGGGLVQAGGSLRLSCAASGRIFDYNAMGWYRQAPGKERELVASITQRGDITYYADSVKGRFTISRDNAKNTVYLQMNSLKPEDTAVYYCNADGVRVWVLPYVLYTGDYWGQGTQVTVSS | low polyreactivity
QFQLVQSGGGLVQAGGSLRLSCAASGFILEPNAVGWYRQAPGKERELVATISYSGGGTYYADSVKGRFTISRDNAKNTVYLQLNCLKPEDTAVYYCAVDWYYYVWWYDYWGQGTHVTVSS | high polyreactivity
QVQLVESGGGFVPAGGSLRLSCAASGSTFIPYAMGWYRQAPGKERELVAAISSGGRTYYADSVKGRFTISRDNAKNTVYLQMNSVKPEDTAGYYCASTTSPSSARYYYWGQGTQVTVSS | high polyreactivity
QVQLVESGGGLVQAGGSLRLSCAASGITFGRNAMGWYRQAPGKERELVAAISRGGSTNYADSVKGRFTISRDNAKNTVYLQMNSLKPEDTAVYYGNALSWPHGSWIPIHRRYGYWGQGTQVTVSS | high polyreactivity
HVQLVESAGGLVQAGGSLRLSCAASGSTIYGYAMGLYRQAPGKERELVAAITGSGGSTYYADSVKGRFTISRDNAKNTVYLQMNSLKPEDTAVYYCNAVRRYGLEYNYWGQGTQVTVSS | high polyreactivity
